According to US20220218805A1:

T1: Linear … (SEQ ID NO: 15) conjugated to BSA
T1 sequence (peptide, conjugated to BSA): CGGGKLDFG


Molecular target: T1, Linear … (SEQ ID NO: 15) conjugated to BSA
Test: indirect ELISA, hybridoma supernatant on linear peptide-BSA

| OD [OD] | Binder |
| --- | --- |
| 0.107 | Ab21 (clone 2C6) (antibody, V domains shown) VH: EVQLQQSGAELVKPGASVKLSCTASGFNIKDTHMHWVKQRPEQGLEWIGKIDPSNGNTQYDPKFQGKATITADTSSNTAYLQLSSLTSEDTAVYYCATGFAYWGQGTLVTVSA VL: DIQMTQSPASLSASVGETVTITCRASGNIHNYLAWYQQKQGKSPQLLVYNAKTLADGVPSRFSGSGSGTQYSLKINSLQPEDFGSYYCQHFWYTPWTFGGGTKLEIK |
| 0.075 | Ab29 (clone 12D11) (antibody, V domains shown) VH: QIQLVQSGPELKKPGETVKISCKASGYTFTNYGMNWVKQAPGKGLKWMGWINTYSGEPTYVDDFKGRFAFSLETSASTAYLQINNLKNEDMATYFCARSPGAYYTLDYWGQGTSVTVSS VL: DIVMSQSPSSLAVSAGEKVTMSCKSSQSLLNSRTRKNYLAWYQQKPGQSPKLLIYWASTRESGVPDRFTGSGSGTDFTLTISSVQAEDLAVYYCKQSYNLYTFGGGTKLEIK |
